What was measured:
Assay in all cases: holdup assay
Design in all cases: key: below the threshold = too weak to quantify, mostly under pKd 3.1 to 4
[1] = target: DLG2_2, Q15700
[2] = target: T1, TJP3_3, O95049
T1 sequence (O95049 375-456, limits assumed, looked up): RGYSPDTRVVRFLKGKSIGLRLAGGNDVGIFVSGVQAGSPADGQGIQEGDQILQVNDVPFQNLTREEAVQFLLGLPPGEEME

[3] = target: T2, LNX2_3, Q8N448
T2 sequence (Q8N448 463-564, limits assumed, looked up): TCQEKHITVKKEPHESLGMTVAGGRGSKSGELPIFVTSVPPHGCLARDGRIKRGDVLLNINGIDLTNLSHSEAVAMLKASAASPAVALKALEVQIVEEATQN

[4] = target: T3, HTRA3, P83110
T3 sequence (P83110 354-453, limits assumed, looked up): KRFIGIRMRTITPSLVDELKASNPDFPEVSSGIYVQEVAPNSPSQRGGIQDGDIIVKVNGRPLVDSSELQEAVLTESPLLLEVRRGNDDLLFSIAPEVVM

[5] = target: GOPC, Q9HD26
[6] = target: FRMPD3, Q5JV73
[7] = target: HTRA1, Q92743
[8] = target: T4, MPP7, Q5T2T1
T4 sequence (Q5T2T1 134-230, limits assumed, looked up): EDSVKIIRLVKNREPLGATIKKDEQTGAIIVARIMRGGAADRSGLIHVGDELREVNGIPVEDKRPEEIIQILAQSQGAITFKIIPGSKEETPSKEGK

[9] = target: Inadl_6, Q8NI35
[10] = target: T5, GRIP1_5, Q9Y3R0
T5 sequence (Q9Y3R0 568-668, limits assumed, looked up): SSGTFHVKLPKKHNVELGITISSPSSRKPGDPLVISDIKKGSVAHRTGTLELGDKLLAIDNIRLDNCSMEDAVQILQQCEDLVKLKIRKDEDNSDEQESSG

[11] = target: T6, APBA3_1, O96018
T6 sequence (O96018 389-490, limits assumed, looked up): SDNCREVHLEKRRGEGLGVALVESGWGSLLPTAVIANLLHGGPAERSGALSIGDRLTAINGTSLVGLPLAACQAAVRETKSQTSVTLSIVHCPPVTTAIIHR

[12] = target: T7, LRRC7, Q96NW7
T7 sequence (Q96NW7 1440-1537, limits assumed, looked up): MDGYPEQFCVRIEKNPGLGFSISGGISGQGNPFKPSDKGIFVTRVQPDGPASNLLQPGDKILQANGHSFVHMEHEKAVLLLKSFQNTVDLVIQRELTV

[13] = target: TJP1_3, Q07157
[14] = target: T8, CARD11, Q9BXL7
T8 sequence (Q9BXL7 662-765, limits assumed, looked up): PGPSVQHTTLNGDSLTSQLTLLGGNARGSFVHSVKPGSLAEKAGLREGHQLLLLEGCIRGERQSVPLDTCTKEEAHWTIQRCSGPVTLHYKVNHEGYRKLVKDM

[15] = target: NHERF4_1, Q86UT5-2
[16] = target: LNX1_1, Q8TBB1
[17] = target: GRIP2_4, Q9C0E4
[18] = target: GORASP2, Q9H8Y8
[19] = target: HTRA2, O43464
[20] = target: T9, SNTB1, Q13884
T9 sequence (Q13884 107-205, limits assumed, looked up): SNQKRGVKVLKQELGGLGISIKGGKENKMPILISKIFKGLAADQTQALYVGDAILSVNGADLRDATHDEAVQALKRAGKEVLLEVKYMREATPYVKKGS

[21] = target: PDZRN4_1, Q6ZMN7
[22] = target: LAP2, Q96RT1
[23] = target: T10, DVL3, Q92997
T10 sequence (Q92997 244-331, limits assumed, looked up): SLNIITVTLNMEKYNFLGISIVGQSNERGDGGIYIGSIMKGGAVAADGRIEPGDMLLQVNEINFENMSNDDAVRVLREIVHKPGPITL

[24] = target: LNX1_2, Q8TBB1
[25] = target: DLG4_3, P78352
[26] = target: MAGI3_2, Q5TCQ9
[27] = target: GRIP2_6, Q9C0E4
[28] = plain residues with an end cap or a label only (N-terminal biotin on a linker: none)
[29] = plain residues with an end cap or a label only (N-terminal biotin on a linker: gsgsgs; C-terminal amide)
[30] = plain residues with an end cap or a label only (N-terminal biotin on a linker: ttds)
[31] = plain residues with an end cap or a label only (N-terminal biotin on a linker: ado-ado)

Sequence of LNX1_1, Q8TBB1 (Q8TBB1 261-371): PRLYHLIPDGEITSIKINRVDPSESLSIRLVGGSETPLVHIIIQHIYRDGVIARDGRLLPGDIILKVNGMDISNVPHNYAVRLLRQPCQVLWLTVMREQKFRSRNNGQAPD
Sequence of TJP1_3, Q07157 (Q07157 416-512): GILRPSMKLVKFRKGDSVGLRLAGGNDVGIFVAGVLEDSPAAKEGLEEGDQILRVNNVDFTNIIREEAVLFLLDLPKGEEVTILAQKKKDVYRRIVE
Sequence of DLG4_3, P78352 (P78352 306-403): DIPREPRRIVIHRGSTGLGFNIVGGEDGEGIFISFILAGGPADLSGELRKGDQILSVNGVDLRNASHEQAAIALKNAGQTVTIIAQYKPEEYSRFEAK
Sequence of DLG2_2, Q15700 (Q15700 189-283): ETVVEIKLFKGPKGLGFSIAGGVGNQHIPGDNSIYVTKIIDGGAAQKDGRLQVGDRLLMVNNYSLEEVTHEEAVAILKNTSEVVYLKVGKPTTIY
Sequence of PDZRN4_1, Q6ZMN7 (Q6ZMN7 213-318): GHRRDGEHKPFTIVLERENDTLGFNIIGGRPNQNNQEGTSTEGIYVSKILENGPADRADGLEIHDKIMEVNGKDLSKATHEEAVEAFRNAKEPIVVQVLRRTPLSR
Sequence of GRIP2_6, Q9C0E4 (Q9C0E4 648-740): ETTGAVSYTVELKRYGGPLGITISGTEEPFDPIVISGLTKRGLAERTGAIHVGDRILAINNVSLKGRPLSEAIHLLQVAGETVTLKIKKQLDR
Sequence of Inadl_6, Q8NI35 (Q8NI35 1058-1167): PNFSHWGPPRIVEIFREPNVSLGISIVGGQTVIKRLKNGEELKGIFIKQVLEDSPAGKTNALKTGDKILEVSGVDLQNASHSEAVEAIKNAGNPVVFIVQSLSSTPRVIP
Sequence of FRMPD3, Q5JV73 (Q5JV73 12-100): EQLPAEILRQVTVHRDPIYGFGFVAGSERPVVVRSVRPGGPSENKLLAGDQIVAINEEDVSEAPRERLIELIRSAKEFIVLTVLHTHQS
Sequence of MAGI3_2, Q5TCQ9 (Q5TCQ9 398-503): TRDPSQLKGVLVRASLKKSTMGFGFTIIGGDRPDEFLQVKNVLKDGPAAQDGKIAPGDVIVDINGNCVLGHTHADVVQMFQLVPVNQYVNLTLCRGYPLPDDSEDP
Sequence of LNX1_2, Q8TBB1 (Q8TBB1 371-470): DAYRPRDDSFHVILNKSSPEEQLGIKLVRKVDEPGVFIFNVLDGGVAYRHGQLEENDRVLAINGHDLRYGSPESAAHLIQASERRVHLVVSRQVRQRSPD
Sequence of GRIP2_4, Q9C0E4 (Q9C0E4 446-548): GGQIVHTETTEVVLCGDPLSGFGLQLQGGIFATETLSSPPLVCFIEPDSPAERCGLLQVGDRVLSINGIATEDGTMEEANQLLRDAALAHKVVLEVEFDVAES
Sequence of LAP2, Q96RT1 (Q96RT1 other isoform, or with tags, fused parts or gaps): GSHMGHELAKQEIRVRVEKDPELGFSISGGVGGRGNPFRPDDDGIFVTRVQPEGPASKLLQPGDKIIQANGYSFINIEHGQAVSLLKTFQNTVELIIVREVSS
Sequence of HTRA2, O43464 (O43464 355-458): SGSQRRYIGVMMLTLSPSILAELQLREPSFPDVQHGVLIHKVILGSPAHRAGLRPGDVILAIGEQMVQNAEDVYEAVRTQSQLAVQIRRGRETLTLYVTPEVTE
Sequence of HTRA1, Q92743 (Q92743 360-477): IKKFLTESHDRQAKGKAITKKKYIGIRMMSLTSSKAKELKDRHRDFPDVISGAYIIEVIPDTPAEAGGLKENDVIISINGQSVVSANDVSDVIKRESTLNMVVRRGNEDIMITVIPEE
Sequence of NHERF4_1, Q86UT5-2 (Q86UT5 other isoform, or with tags, fused parts or gaps): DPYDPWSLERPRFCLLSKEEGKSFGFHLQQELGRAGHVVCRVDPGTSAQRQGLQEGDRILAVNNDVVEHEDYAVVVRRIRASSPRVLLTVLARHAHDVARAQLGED

B1: MERS-E, K9N5R3 (peptide)
chain: DSKPPLPPDEWV
pKd [1, 28]: below the threshold | pKd [2, 28]: 4.83 | pKd [3, 28]: below the threshold | pKd [4, 28]: 5.66 | pKd [5, 28]: 3.92 | pKd [6, 28]: 4.17 | pKd [7, 28]: 4.34 | pKd [8, 28]: below the threshold | pKd [9, 28]: 3.81 | pKd [10, 28]: 3.68 | pKd [11, 28]: 3.65 | pKd [12, 28]: 4.4 | pKd [13, 28]: 3.56 | pKd [14, 28]: below the threshold | pKd [15, 28]: below the threshold | pKd [16, 28]: below the threshold | pKd [17, 28]: below the threshold | pKd [18, 28]: 4.57 | pKd [19, 28]: 4.2 | pKd [20, 28]: 3.8 | pKd [21, 28]: 3.49 | pKd [22, 28]: 5.24 | pKd [23, 28]: 3.78 | pKd [24, 28]: below the threshold | pKd [25, 28]: 3.64 | pKd [26, 28]: below the threshold | pKd [27, 28]: below the threshold

B2: ARAP3_int, Q8WWN8 (peptide)
chain: ELIQDTSTSFSTTREW
pKd [1, 29]: below the threshold | pKd [2, 29]: below the threshold | pKd [3, 29]: below the threshold | pKd [4, 29]: below the threshold | pKd [5, 29]: below the threshold | pKd [6, 29]: below the threshold | pKd [7, 29]: below the threshold | pKd [8, 29]: below the threshold | pKd [9, 29]: below the threshold | pKd [10, 29]: below the threshold | pKd [11, 29]: below the threshold | pKd [12, 29]: below the threshold | pKd [13, 29]: below the threshold | pKd [14, 29]: below the threshold | pKd [15, 29]: below the threshold | pKd [16, 29]: below the threshold | pKd [17, 29]: below the threshold | pKd [18, 29]: below the threshold | pKd [19, 29]: below the threshold | pKd [20, 29]: below the threshold | pKd [21, 29]: below the threshold | pKd [22, 29]: below the threshold | pKd [23, 29]: below the threshold | pKd [24, 29]: below the threshold | pKd [25, 29]: below the threshold | pKd [26, 29]: below the threshold | pKd [27, 29]: below the threshold

B3: ASIC3, Q9UHC3 (peptide)
chain: HRTCYLVTQL
pKd [1, 30]: 3.93 | pKd [2, 30]: 3.43 | pKd [3, 30]: below the threshold | pKd [4, 30]: 3.43 | pKd [5, 30]: 4.79 | pKd [6, 30]: 3.53 | pKd [7, 30]: 4.39 | pKd [8, 30]: 3.25 | pKd [9, 30]: 4.23 | pKd [10, 30]: below the threshold | pKd [11, 30]: below the threshold | pKd [12, 30]: 4.04 | pKd [13, 30]: below the threshold | pKd [14, 30]: below the threshold | pKd [15, 30]: 4.49 | pKd [16, 30]: 4.03 | pKd [17, 30]: below the threshold | pKd [18, 30]: 4.55 | pKd [19, 30]: 3.91 | pKd [20, 30]: 4.07 | pKd [21, 30]: 4.24 | pKd [22, 30]: 4.02 | pKd [23, 30]: 3.3 | pKd [24, 30]: 3.46 | pKd [25, 30]: 3.6 | pKd [26, 30]: 4.3 | pKd [27, 30]: 3.22

B4: EPHA7, Q15375 (peptide)
chain: LHLHGTGIQV
pKd [1, 31]: below the threshold | pKd [2, 31]: below the threshold | pKd [3, 31]: 3.47 | pKd [4, 31]: 3.58 | pKd [5, 31]: below the threshold | pKd [6, 31]: 3.5 | pKd [7, 31]: 4.36 | pKd [8, 31]: below the threshold | pKd [9, 31]: below the threshold | pKd [10, 31]: below the threshold | pKd [11, 31]: below the threshold | pKd [12, 31]: below the threshold | pKd [13, 31]: below the threshold | pKd [14, 31]: below the threshold | pKd [15, 31]: 3.85 | pKd [16, 31]: below the threshold | pKd [17, 31]: below the threshold | pKd [18, 31]: 4.46 | pKd [19, 31]: below the threshold | pKd [20, 31]: below the threshold | pKd [21, 31]: 3.57 | pKd [22, 31]: 3.63 | pKd [23, 31]: below the threshold | pKd [24, 31]: 4.37 | pKd [25, 31]: below the threshold | pKd [26, 31]: 3.55 | pKd [27, 31]: 3.81

Reference: publication PMC9482650, “Quantitative fragmentomics allow affinity mapping of interactomes” (Nature Communications, 2022)
